The source of these data is patent US20260103490A1 (published 2026).

One assay addresses FLAG-HA-MBP-myc-ALFA^ST. In words: dot blot of a dilution series of the MBP fusion.
Assay [1] deals with T1, ALFA^ST peptide (Ac-PSRLEEELRRRLTEP-Amide).
T1 construct: also called free ALFA^ST peptide; ALFA peptide
T1 peptide: Ac-PSRLEEELRRRLTEP-NH2
Briefly: competitive elution of shGFP2-ALFA^ST from NbALFA^PE resin.

Procedure for FLAG-HA-MBP-myc-ALFA^ST: Membranes were scanned using Odyssey CLx (Li-COR). Quantifications were performed using ImageStudioLight (Li-COR).

B1: NbALFA^ST (NbALFA clone 1G5) (VHH)
VHH: EVQLQESGGGLVQPGGSLRLSCTASGVTISALNAMAMGWYRQAPGERRVMVAAVSERGNAMYRESVQGRFTVTRDFTNKMVSLQMDNLKPEDTAVYYCHVLEDRVDSFHDYWGQGTQVTVSS
notes: Alpaca single-domain antibody; also called ALFA Selector^ST (resin-immobilised form); FluoTag-X2 anti-ALFA (fluorophore-coupled form)
Consider B1, for which, in the assay with FLAG-HA-MBP-myc-ALFA^ST, the “fold lower detection limit than for the other epitope tags” value is around 10 fold.

B2: NbALFA^PE (NbALFA mutant for Peptide Elution) (VHH)
VHH: EVQLQESGGGLVQPGGSLRLSCTASGVTISALNAMAMGWYRQAPGEERVMVAAVSSRGNAMYRESVQGRFTVTRDFTNKMVSLQMDNLKPEDTAVYYCHVLEDRVDSFHDYWGQGTQVTVSS
notes: Weaker mutant of NbALFA^ST; used immobilised on agarose (ALFA Selector^PE) or in solution (MST); also called ALFA Selector^PE (resin-immobilised form)
For the molecule B2, in assay [1], the binding result was “binds”.
